Experimental data published in the supplement of paper PMC9112550, “Optimization of the antimicrobial peptide Bac7 by deep mutational scanning” (BMC Biology, 2022).

Test system: Escherichia coli TOP10
Test: shrunken log2 fold change of peptide-encoding DNA abundance (4.5 h post-induction vs induction); higher = less antimicrobial activity (less host growth inhibition)
Settings: time post-induction: 4.5 h; library: site-saturation at positions 5, 18, 19, 20
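Further: peptides expressed intracellularly from a pBAD plasmid library in pooled LB shake-flask culture, induced with 0.3% L-arabinose, DNA abundance read by NGS, three biological replicates, DESeq2 with apeglm shrinkage.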

Row | Sequence | shrunken log2 fold change
1 | RRIRHRPPRLPRPRPRPKLQPRP | 0.0439
2 | RRIRFRPPRLPRPRPRPGANPRP | -0.0673
3 | RRIRERPPRLPRPRPRPCDMPRP | -0.0119
4 | RRIRCRPPRLPRPRPRPGKQPRP | -0.106
5 | RRIRKRPPRLPRPRPRPDCWPRP | 0.825
6 | RRIRVRPPRLPRPRPRPSPYPRP | -0.409
7 | RRIRGRPPRLPRPRPRPDVHPRP | 0.867
8 | RRIRNRPPRLPRPRPRPQQTPRP | -0.0918
9 | RRIRQRPPRLPRPRPRPWAHPRP | -0.0595
10 | RRIRSRPPRLPRPRPRPNFRPRP | -0.113
11 | RRIRYRPPRLPRPRPRPMPHPRP | -0.202
12 | RRIRHRPPRLPRPRPRPFHYPRP | -0.0791
13 | RRIRIRPPRLPRPRPRPCYKPRP | -0.049
14 | RRIRWRPPRLPRPRPRPWFWPRP | 0.123
15 | RRIRARPPRLPRPRPRPDDLPRP | -0.00225
16 | RRIRPRPPRLPRPRPRPFRHPRP | -0.191
17 | RRIRCRPPRLPRPRPRPDAGPRP | 0.122
18 | RRIRMRPPRLPRPRPRPSPAPRP | 1.83
19 | RRIRKRPPRLPRPRPRPLWSPRP | -0.014
20 | RRIRSRPPRLPRPRPRPTMWPRP | 0.214
21 | RRIRCRPPRLPRPRPRPVCGPRP | 0.268
22 | RRIRPRPPRLPRPRPRPPFGPRP | 0.432
23 | RRIRARPPRLPRPRPRPMGIPRP | -0.00146
24 | RRIRQRPPRLPRPRPRPQQHPRP | -0.362
25 | RRIRSRPPRLPRPRPRPEYVPRP | 0.0646

Row | Sequence | shrunken log2 fold change
26 | RRIRHRPPRLPRPRPRPSKQPRP | -0.166
27 | RRIRGRPPRLPRPRPRPAHPPRP | 0.754
28 | RRIRCRPPRLPRPRPRPYISPRP | -0.637
29 | RRIRIRPPRLPRPRPRPHPVPRP | 0.0514
30 | RRIRWRPPRLPRPRPRPKLNPRP | 0.318
31 | RRIRGRPPRLPRPRPRPRTAPRP | 1.12
32 | RRIRQRPPRLPRPRPRPNPHPRP | 0.121
33 | RRIRYRPPRLPRPRPRPCVVPRP | -0.0208
34 | RRIRTRPPRLPRPRPRPSMQPRP | -0.244
35 | RRIRCRPPRLPRPRPRPLCGPRP | -0.0842
36 | RRIRIRPPRLPRPRPRPDNMPRP | -0.25
37 | RRIRGRPPRLPRPRPRPCTLPRP | 0.321
38 | RRIRRRPPRLPRPRPRPFYPPRP | -0.189
39 | RRIRDRPPRLPRPRPRPIWYPRP | -0.0481
40 | RRIRCRPPRLPRPRPRPDYGPRP | 2.76
41 | RRIRSRPPRLPRPRPRPGVMPRP | 0.161
42 | RRIRARPPRLPRPRPRPDWGPRP | 0.272
43 | RRIRERPPRLPRPRPRPAKLPRP | -0.0209
44 | RRIRMRPPRLPRPRPRPGCWPRP | 0.984
45 | RRIRPRPPRLPRPRPRPTYYPRP | -0.636
46 | RRIRSRPPRLPRPRPRPYADPRP | -0.179
47 | RRIRKRPPRLPRPRPRPNQTPRP | 0.00514
48 | RRIRCRPPRLPRPRPRPWPLPRP | 0.222
49 | RRIRDRPPRLPRPRPRPHGLPRP | -0.0404
50 | RRIRERPPRLPRPRPRPCDFPRP | -0.502

Row | Sequence | shrunken log2 fold change
51 | RRIRMRPPRLPRPRPRPTEQPRP | -0.0171
52 | RRIRERPPRLPRPRPRPMHIPRP | -0.185
53 | RRIRLRPPRLPRPRPRPTALPRP | -0.134
54 | RRIRQRPPRLPRPRPRPWFTPRP | -0.356
55 | RRIRPRPPRLPRPRPRPVCFPRP | -0.027
56 | RRIRFRPPRLPRPRPRPWHYPRP | -0.146
57 | RRIRMRPPRLPRPRPRPHDRPRP | 0.0623
58 | RRIRRRPPRLPRPRPRPNQRPRP | 0.269
59 | RRIRRRPPRLPRPRPRPVTCPRP | -0.108
60 | RRIRLRPPRLPRPRPRPPGNPRP | 0.303
61 | RRIRQRPPRLPRPRPRPLDYPRP | 0.13
62 | RRIRQRPPRLPRPRPRPCWLPRP | 0.0947
63 | RRIRWRPPRLPRPRPRPKINPRP | -0.245
64 | RRIRDRPPRLPRPRPRPSYTPRP | -0.302
65 | RRIRMRPPRLPRPRPRPQPSPRP | 1.11
66 | RRIRRRPPRLPRPRPRPDCRPRP | 0.0322
67 | RRIRDRPPRLPRPRPRPHCLPRP | 0.12
68 | RRIRGRPPRLPRPRPRPKEGPRP | 1.62
69 | RRIRGRPPRLPRPRPRPDWKPRP | 0.000125
70 | RRIRTRPPRLPRPRPRPATDPRP | 0.313
71 | RRIRVRPPRLPRPRPRPTPEPRP | 0.639
72 | RRIRCRPPRLPRPRPRPRIPPRP | -0.00295
73 | RRIRSRPPRLPRPRPRPVFFPRP | 0.142
74 | RRIRWRPPRLPRPRPRPEMYPRP | 0.144
75 | RRIRCRPPRLPRPRPRPKYQPRP | -0.0383

Row | Sequence | shrunken log2 fold change
76 | RRIRYRPPRLPRPRPRPELWPRP | 0.13
77 | RRIRCRPPRLPRPRPRPYFKPRP | -0.931
78 | RRIRFRPPRLPRPRPRPVFAPRP | 0.158
79 | RRIRERPPRLPRPRPRPQEFPRP | -0.0119
80 | RRIRYRPPRLPRPRPRPPARPRP | 0.119
81 | RRIRARPPRLPRPRPRPMFPPRP | -0.147
82 | RRIRLRPPRLPRPRPRPWEEPRP | -0.0678
83 | RRIRMRPPRLPRPRPRPSRDPRP | 0.257
84 | RRIRNRPPRLPRPRPRPQKFPRP | -0.0476
85 | RRIRLRPPRLPRPRPRPLDWPRP | 0.124
86 | RRIRRRPPRLPRPRPRPLKKPRP | 0.169
87 | RRIRERPPRLPRPRPRPLCLPRP | -0.679
88 | RRIRKRPPRLPRPRPRPKSMPRP | 0.375
89 | RRIRFRPPRLPRPRPRPMCTPRP | 0.0284
90 | RRIRKRPPRLPRPRPRPHGAPRP | 0.594
91 | RRIRTRPPRLPRPRPRPGKDPRP | 0.0234
92 | RRIRIRPPRLPRPRPRPIGYPRP | -0.085
93 | RRIRHRPPRLPRPRPRPYKWPRP | -0.0842
94 | RRIRRRPPRLPRPRPRPSESPRP | 0.0539
95 | RRIRQRPPRLPRPRPRPVCFPRP | -0.139
96 | RRIRERPPRLPRPRPRPETYPRP | -0.152
97 | RRIRRRPPRLPRPRPRPQHLPRP | -0.289
98 | RRIRFRPPRLPRPRPRPIPTPRP | 0.0793
99 | RRIRARPPRLPRPRPRPLDNPRP | 0.151
100 | RRIRMRPPRLPRPRPRPRSGPRP | 0.815

Row | Sequence | shrunken log2 fold change
101 | RRIRNRPPRLPRPRPRPHISPRP | -0.0617
102 | RRIRNRPPRLPRPRPRPSRRPRP | 0.27
103 | RRIRFRPPRLPRPRPRPHYTPRP | -0.385
104 | RRIRMRPPRLPRPRPRPGCMPRP | 0.968
105 | RRIRIRPPRLPRPRPRPACSPRP | -0.129
106 | RRIRQRPPRLPRPRPRPPMLPRP | 0.117
107 | RRIRARPPRLPRPRPRPEWPPRP | 0.591
108 | RRIRARPPRLPRPRPRPWLLPRP | 0.156
109 | RRIRGRPPRLPRPRPRPTHSPRP | 0.587
110 | RRIRIRPPRLPRPRPRPIWQPRP | 0.182
111 | RRIRGRPPRLPRPRPRPHYIPRP | -0.0882
112 | RRIRYRPPRLPRPRPRPSAIPRP | -0.939
113 | RRIRRRPPRLPRPRPRPNNGPRP | -0.277
114 | RRIRLRPPRLPRPRPRPQVHPRP | -0.184
115 | RRIRNRPPRLPRPRPRPCPFPRP | -0.208
116 | RRIRARPPRLPRPRPRPMICPRP | 0.0985
117 | RRIRKRPPRLPRPRPRPVKQPRP | 0.0206
118 | RRIRFRPPRLPRPRPRPLAFPRP | -0.134
119 | RRIRGRPPRLPRPRPRPEYVPRP | 0.244
120 | RRIRKRPPRLPRPRPRPYWMPRP | -0.19
121 | RRIRLRPPRLPRPRPRPLEQPRP | 0.0155
122 | RRIRVRPPRLPRPRPRPCGRPRP | 0.168
123 | RRIRLRPPRLPRPRPRPAREPRP | 0.678
124 | RRIRARPPRLPRPRPRPLMSPRP | 0.302
125 | RRIRTRPPRLPRPRPRPHDFPRP | 0.0369
